Experiment [1] addresses T1, human T-cell immunoglobulin and mucin-domain containing molecule 3 (TIM-3) (human, UniProt Q8TDQ0 22-200, limits assumed).
T1 construct: also called Human TIM-3
The experiment in a line: competition ELISA: pre-equilibrated mixture of mAb and human TIM3(ECD)-huFc on plate-coated phosphatidylserine (PtdSer, a lipid), anti-huFc-HRP detection, % inhibition.
Experimental: ELISA plates were coated with PtdSer or PtdChol, washed and incubated with a pre-equilibrated mixture of purified antibodies at various concentrations and TIM3(ECD)-huFc. The plates were washed and then the signal was detected by incubation with HRP-coupled anti-huFc secondary antibody and then a HRP substrate. TIM-3 binding to PtdSer was used as 100% signal and TIM-3 binding to PtdChol as zero (background) to calculate percent of inhibition by a given mAb.
To determine the effect of anti-TIM-3 antibodies on the interaction of TIM-3 with phosphatidylserine (PtdSer), 384-well ELISA plates were coated with PtdSer or phosphatidylcholine (PtdChol) at room temperature. The wells were washed using PBS supplemented with 0.1% Tween-20 and then blocked using PBS supplemented with 2% bovine serum albumin (BSA). […] The plates were washed and then incubated with HRP-coupled anti-huFc secondary antibody. Plates were washed, incubated with an HRP substrate, and read using a POLARstar Omega Microplate (BMG LABTECH). The assay was performed in triplicate.

Experiment [2] has as its target T1, human T-cell immunoglobulin and …. The experiment in a line: ELISA, recombinant human TIM-3(ECD)-6His coated on the plate, anti-human IgG-HRP detection, absorbance at 450 nm. (In general: An ELISA detects its analyte on a solid surface through an enzyme-linked reagent.)
Experimental: Recombinant human TIM-3(ECD)-6His in carbonate coating buffer was coated on an ELISA plate at 4° C. overnight.
For experiment [3] the target is unchanged. The experiment in a line: BLI (OCTET Red96), mAb on anti-mouse Fc biosensor, antigen in solution, 1:1 model.
Experimental: Binding experiments were performed on OCTET Red96 at 25° C. Antibodies were loaded onto Anti-Mouse Fc (AMC) biosensors. Loaded sensors were dipped into serial dilutions of antigen. Kinetic constants were calculated using a monovalent (1:1) model. The assay buffer was PBS supplemented with 0.1% BSA, 500 mM NaCl, 0.02% Tween-20, pH 7.2.

The results in this text go back to patent US20210032330A1 (PHANES THERAPEUTICS, published 2021).

Usually EC50 (read off the curve) stands for the concentration at which the effect is half-maximal. Usually Kd stands for the concentration at which binding is half-saturated. A higher Kd goes with lower affinity.

B1: 7-N2-A (antibody, V domains shown)
VH: QVQLKESGPGLVAPSQSLSITCTVSGFSLTGFGVNWVRQPPGKGLEWLGMIWGDGSTDYNSTLKSRLSISKDNSKSQVFLKMNSLQTDDTARYYCARDYYGYVGNAMDYWGQGTSVTVSS
VL: DIVMSQSPSSLAVSAGEKVTMSCKSSQSLLNSRTRKNYLAWYQQKPGQSPKLLIYWASTRESGVPDRFTGSGSGTDFTLTISSVQAEDLAVYYCKQSYNHMYTFGGGTKLEIK
notes: also called anti-TIM-3 monoclonal antibody 7-N2-A
For the molecule B1, in experiment [1], the “IC50 (read off the curve)” value was around 7 nM.

B2: H1L1 (antibody, V domains shown)
VH: EVQLVESGGGLVQPGGSLRLSCAASGYTFTSSDINWVRQAPGKGLVWIGWIFPGDGSTKYTPSLKDQATLSTDKAKNTAYLQMNSLRAEDTAVYFCARGLDYWGQGTLVTVSS
VL: DIQMTQSPSSLSASVGDRVTITCKASQDINSYLGWFQQKPGKAPKTLIYRADRLVDGVPSRFSGSGSGQDYTFTISSLQPEDIATYYCLQYDEFPLTFGQGTKLEIK
notes: also called humanized version of anti-TIM-3 mAb 16-K5-A, VH H1 with VL L1
B2: the “EC50 (read off the curve)” value in experiment [2] was around 0.07 nM.

B3: H2L1 (antibody, V domains shown)
VH: EVQLVESGGGLVQPGGSLRLSCAASGYTFTSSDINWVRQAPGKGLVWIGWIFPGDGSTKYTPSLKDQATLSTDLAKNTAYLQMNSLRAEDTAVYFCARGLDYWGQGTLVTVSS
VL: DIQMTQSPSSLSASVGDRVTITCKASQDINSYLGWFQQKPGKAPKTLIYRADRLVDGVPSRFSGSGSGQDYTFTISSLQPEDIATYYCLQYDEFPLTFGQGTKLEIK
notes: also called humanized version of anti-TIM-3 mAb 16-K5-A, VH H2 with VL L1
B3: in experiment [2], the “EC50 (read off the curve)” value was around 0.09 nM.

B4: 6-H6-A (antibody, V domains shown)
VH: EVQLQQFGAELVKPGASVKISCKASGYTFTDYNMDWVKQSHGKSLEWIGDIDPNYDSTTYNQKFKGKATLTVDKSSSTAYMELRSLTSEDTAVYYCARGGHYRYDGYYAMDYWGQGTSVTVSS
VL: DIVLTQSPASSAVSLGQRATFSCRASQSVSTSSYSFMHWYQQKPGQPPKLLIKYASNLESGVPARFSGSGSGTDFTLNIHPVEEEDTATYYCQHSWEIPPTFGGGTNLEIK
notes: also called anti-TIM-3 monoclonal antibody 6-H6-A
For B4, in experiment [1], the binding result is on record as “binds”.

B5: anti-TIM-3 monoclonal antibody 1-A19-A (antibody, V domains shown)
VH: EVQLQQFGAELVKPGASVKISCKASGYTFTDYNMDWVKQSHGKSLEWIGDIDPNYDITTYNQKFKGKATLTVDKSSSTAYMELRSLTSEDTAVYYCARGGHYRYDGYYALDYWGQGTSVTVSS
VL: DIVLTQSPASLAVSLGQRATISCKASQSVDYDGDSYMNWYQQKPGQPPKLLIYAASNLESGIPARFSGSGSGTDFTLNIHPVEEEDAATYYCQQSNEDPFTFGSGTKLEIK
notes: Mouse hybridoma mAb; captured on anti-mouse Fc biosensors
On to B5, for which the Kd in experiment [3] turned out to be 2.2 nM.

B6: anti-TIM-3 monoclonal antibody 20-L10-A (antibody, V domains shown)
VH: QIQLVQSGPELKKPGETVKISCKASGYTFTNYGMNWVKQAPGKVLKWMVWINTYTGEPTYADDFKGRFAFSLETSASTAYLQINNLKNEDTATYFCARDAMDYWGQGTSVTVSS
VL: DVVMTQTPLSLPVSLGDQASISCRSSQSLVHSNGNTYLHWYLQKPGQSPKLLIYKVSNRFSGVPDRFSGSGSGTDFTLKISRVEAEDLGVYFCSQNTHVPWTFGGGTKLEIK
notes: as for B5
On to B6, for which binding in experiment [3] was characterised by a dissociation constant (Kd) of 10 nM.

B7: anti-TIM-3 monoclonal antibody 15-L23-A (antibody, V domains shown)
VH: QIQLVQSGPELKKPGETVKISCRASGYTFTNYGMNWVKQAPGKGLKWMVWINTYTGEPTFADDFKGRFAFSLETSASTAYLQIINLKNEDTATYFCARDTMDYWGQGTSVTVSS
VL: DIVMTQTPLSLPVSLGDQASISCRSSQSLVHSNGNTYLHWYLQKPGQSPKLLIYKVSNRFSGVPDRFSGSGSGTDFTLKISRVEAEDLGVYFCSQNTHVPWTFGGGTKLEIK
notes: as for B5
The molecule B7 registered a Kd in experiment [3] of 13 nM.

B8: anti-TIM-3 monoclonal antibody 8-F3-A (antibody, V domains shown)
VH: QIQLVQSGPELKKPGETVKISCKASGYTFTNYGMNWVKQAPGKGLKWMAWINTYTGEPTYADDFKGRFAFSLETSASTAYLQINNLKNEDTATYFCARDLEDYWGQGTTLTVSS
VL: DVVMTQTPLSLPVSLGDQASISCRSSQSLVHSNGNTYLHWYLQKPGQSPKLLIYKVSNRFSGVPDRFSGSGSGTDFTLKISRVEAEDLGVYFCSQTTHVPWTFGGGTKLEIK
notes: as for B5
B8 returned a dissociation constant Kd in experiment [3] of 1.6 nM.

B9: anti-TIM-3 monoclonal antibody 16-J5-A (antibody, V domains shown)
VH: DVQLVESGGGLVQPGGSRKLSCAASGFTFSSFGMNWVRQAPEKGLEWVAYISSGSSTIYYADTVKGRFTISRDNPKNTLFLQMTSLRSEDTAMYYCARWGRWADFDYWGQGTTLTVSS
VL: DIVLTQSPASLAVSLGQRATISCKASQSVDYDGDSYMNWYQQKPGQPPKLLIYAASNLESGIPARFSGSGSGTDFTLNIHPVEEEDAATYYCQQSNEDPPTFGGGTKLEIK
notes: as for B5
B9 returned a dissociation constant (Kd) in experiment [3] of 2.7 nM.

B10: anti-TIM-3 monoclonal antibody 6-I13-A (antibody, V domains shown)
VH: EVQLQQSGPELEKPGASVKISCKASGYSFTGYNMNWVKQSNGKSLEWIGNIDPYYGVTSYNQKFKGKATLTVDKSSSTAYMQLKSLTSEDSAVYYCASYSLTYDGYYPFAYWGQGTLVTVSA
VL: DIVLTQSPASLAVSLGQRATISCRASKSVSTSGYSYMHWYQQKPGQPPKLLIYLASNLESGVPARFSGSGSGTDFTLNIHPVEEEDAATYYCQHSRELPYTFGGGTKLEIK
notes: as for B5
B10 returned a dissociation constant (Kd) in experiment [3] of 9.9 nM. In addition, the “IC50 (read off the curve)” value in experiment [1] was around 4 nM.

B11: anti-TIM-3 monoclonal antibody 10-O15-A (antibody, V domains shown)
VH: QVQLQQSGADLVRPGASVKLSCKALGYTFTDYEMHWVKQTPVHGLEWIGAIHPGSGGTAYNQKFKGKATLTADKSSSTAYMELSSLTSEDSAVYFCSRSYYRYTGYFDVWGAGTTVTVSS
VL: DIVLTQSPASLAVSLGQRATISCRASKSVSASGYSYMHWYQQKPGQPPKLLIYLASNLESGVPARFSGSGSGTDFTLNVHPVEEEDAATYYCQHSRELPFTFGSGTKLEIK
notes: as for B5
Molecule B11 yielded a Kd in experiment [3] of 3.1 nM.

B12: anti-TIM-3 monoclonal antibody 18-N1-A (antibody, V domains shown)
VH: QVQLQQPGAELVRPGVSVKLSCKASGYTFTSYWMHWIKQRPEQGLERIGEINPSNGGTNYNEKFKNKATLTVDKSSSTAYMQLSSLTSEDSAVYYCARSYYTYDAIDYWGQGTSVTVSS
VL: DIVMSQSPSSLAVSAGEKVTMSCKSSQSLLNSRTRKNYLAWYQQKPGQSPKLLIYWASTRESGVPDRFTGSGSGTDFTLTISSVQAEDLAVYYCKQSYNLYTFGGGTKLEIK
notes: as for B5
For B12, the dissociation constant (Kd) in experiment [3] amounted to 1.1 nM.

B13: anti-TIM-3 monoclonal antibody 10-M21-A (antibody, V domains shown)
VH: DVQLQESGPTLVKPSQTLSLTCSVTGDSITSGYWNWIRKFPGNKLEYMGYISYSGSTYYNPSLKSRISIIRDTSKNQYYLQLNSVTTEDTATYYCVSGNHFDYWGQGTTLTVSS
VL: DIQMTQSPSSLSASLGGKVTITCKASQDINRYIAWYQHKPGKGPRLLIHYTSTLQPGIPSRFSGSGSGRDYSFSISNLEPEDIATYYCLQYDNLLFTFGSGTKLEIK
notes: as for B5
B13 registered a dissociation constant Kd in experiment [3] of 16 nM.

B14: anti-TIM-3 monoclonal antibody 16-K5-A (antibody, V domains shown)
VH: QVQLQQSGAELVKPGASVKLSCKASGYTFTSSDINWVRQRPEQGLEWIGWIFPGDGSTKYNEKFKGKATLTTDKSSSTAYMQLSRLTSEDSAVYFCARGLDYWGQGTTLTVSS
VL: DIKMTQSPSSMYASLGERVTITCKASQDINSYLGWFQQKPGKSPKTLIYRADRLVDGVPSRFSGSGSGQDYSLTISSLEYEDMGIYYCLQYDEFPLTFGAGTKLELK
notes: Mouse hybridoma mAb (parent of the humanized H1L1, H2L1, H5L5, H7L5); captured on anti-mouse Fc biosensors; also called mouse anti-TIM-3 mAb 16-K5-A
In turn, B14 yielded an equilibrium dissociation constant (Kd) in experiment [3] of 7.9 nM.

B15: anti-TIM-3 monoclonal antibody 16-L3-A (antibody, V domains shown)
VH: QVQLQQSGPELVKPGASVKMSCKASGYTFTSYYIHWVKQRPGQGLEWIGWIYPGDGSTKYNEKFKGKTTLTADKSSSTAYMLLSSLTSEDSAIYFCATDRYDVAYWGQGTLVTVSA
VL: EIVLTQSPALMAASPGEKVTITCSVSSSISSSNLHWYQQKSETSPKPWIYGTSNLASGVPVRFSGSGSGTSYSLTISSMEAEDAATYYCQQWSSYPLTFGAGTKLELK
notes: as for B5
In turn, B15 had a Kd in experiment [3] of 14 nM.
